Measured values from IntAct's records for PubMed 20980406.

B1: Band 3 anion transport protein (Homo sapiens), P02730 (parent)
chain: MEELQDDYEDMMEENLEQEEYEDPDIPESQMEEPAAHDTEATATDYHTTSHPGTHKVYVELQELVMDEKNQELRWMEAARWVQLEENLGENGAWGRPHLSHLTFWSLLELRRVFTKGTVLLDLQETSLAGVANQLLDRFIFEDQIRPQDREELLRALLLKHSHAGELEALGGVKPAVLTRSGDPSQPLLPQHSSLETQLFCEQGDGGTEGHSPSGILEKIPPDSEATLVLVGRADFLEQPVLGFVRLQEAAELEAVELPVPIRFLFVLLGPEAPHIDYTQLGRAAATLMSERVFRIDAYMAQSRGELLHSLEGFLDCSLVLPPTDAPSEQALLSLVPVQRELLRRRYQSSPAKPDSSFYKGLDLNGGPDDPLQQTGQLFGGLVRDIRRRYPYYLSDITDAFSPQVLAAVIFIYFAALSPAITFGGLLGEKTRNQMGVSELLISTAVQGILFALLGAQPLLVVGFSGPLLVFEEAFFSFCETNGLEYIVGRVWIGFWLILLVVLVVAFEGSFLVRFISRYTQEIFSFLISLIFIYETFSKLIKIFQDHPLQKTYNYNVLMVPKPQGPLPNTALLSLVLMAGTFFFAMMLRKFKNSSYFPGKLRRVIGDFGVPISILIMVLVDFFIQDTYTQKLSVPDGFKVSNSSARGWVIHPLGLRSEFPIWMMFASALPALLVFILIFLESQITTLIVSKPERKMVKGSGFHLDLLLVVGMGGVAALFGMPWLSATTVRSVTHANALTVMGKASTPGAAAQIQEVKEQRISGLLVAVLVGLSILMEPILSRIPLAVLFGIFLYMGVTSLSGIQLFDRILLLFKPPKYHPDVPYVKRVKTWRMHLFTGIQIICLAVLWVVKSTPASLALPFVLILTVPLRRVLLPLIFRNVELQCLDADDAKATFDEEEGRDEYDEVAMPV

Variants of: B1
Settings: with g3p_rabit GAPDH

Y904A was tested. Which “effect of a mutation on the interaction” value did it give?
Its value is “decreasing interaction strength”.

For D905A;E906A, which “effect of a mutation on the interaction” value is on record?
The value was “with no effect”.

With D902A;E903A as the variant, how does the “effect of a mutation on the interaction” value read?
The value was “decreasing interaction strength”.
